Changes are numbered by the printed parent chain.

Here are results for 24 molecules from patent publication US20250019450A1 (DIAGONAL THERAPEUTICS, published 2025).

Assay [1] concerns the target T1, human IL-12Rβ1-his (Acro Biosystems), biotinylated (human, UniProt P42701 24-545, biotinylated).
T1 construct: bought; captured on Neutravidin in the ELISA; also called Bio-huIL-12Rβ1-His
Briefly: ELISA, periplasmic extract. Background: In an ELISA, binding on a coated surface is turned into a signal by an enzyme label.

The target in assay [2] is T2, cyno IL-12RB1 with C-terminal FLAG tag, transiently expressed on HEK-293T cells (cyno, UniProt A0A2K5VWV1 24-662).
T2 construct: whole, on cells
Briefly: FACS, periplasmic extract, HEK-293T.

Assay [3] deals with T3, human IL-12RB1 with C-terminal FLAG tag, transiently expressed on HEK-293T cells (human, UniProt P42701 24-662).
T3 construct: whole, on cells
The assay is described as follows: FACS, periplasmic extract, HEK-293T. A general note: In flow cytometry, cells or beads pass a laser one at a time.

Assay [4] deals with human IL-12 receptor (IL-12Rβ1 and IL-12Rβ2) on HEK-Blue IL-12 cells (human, UniProt P42701 24-662; Q99665 24-862). Briefly: cell-based or functional assay.
Sequence of human IL-12 receptor (IL-12Rβ1 and IL-12Rβ2) on HEK-Blue IL-12 cells (Q99665 24-862, chain 2 of 2, other chains not shown): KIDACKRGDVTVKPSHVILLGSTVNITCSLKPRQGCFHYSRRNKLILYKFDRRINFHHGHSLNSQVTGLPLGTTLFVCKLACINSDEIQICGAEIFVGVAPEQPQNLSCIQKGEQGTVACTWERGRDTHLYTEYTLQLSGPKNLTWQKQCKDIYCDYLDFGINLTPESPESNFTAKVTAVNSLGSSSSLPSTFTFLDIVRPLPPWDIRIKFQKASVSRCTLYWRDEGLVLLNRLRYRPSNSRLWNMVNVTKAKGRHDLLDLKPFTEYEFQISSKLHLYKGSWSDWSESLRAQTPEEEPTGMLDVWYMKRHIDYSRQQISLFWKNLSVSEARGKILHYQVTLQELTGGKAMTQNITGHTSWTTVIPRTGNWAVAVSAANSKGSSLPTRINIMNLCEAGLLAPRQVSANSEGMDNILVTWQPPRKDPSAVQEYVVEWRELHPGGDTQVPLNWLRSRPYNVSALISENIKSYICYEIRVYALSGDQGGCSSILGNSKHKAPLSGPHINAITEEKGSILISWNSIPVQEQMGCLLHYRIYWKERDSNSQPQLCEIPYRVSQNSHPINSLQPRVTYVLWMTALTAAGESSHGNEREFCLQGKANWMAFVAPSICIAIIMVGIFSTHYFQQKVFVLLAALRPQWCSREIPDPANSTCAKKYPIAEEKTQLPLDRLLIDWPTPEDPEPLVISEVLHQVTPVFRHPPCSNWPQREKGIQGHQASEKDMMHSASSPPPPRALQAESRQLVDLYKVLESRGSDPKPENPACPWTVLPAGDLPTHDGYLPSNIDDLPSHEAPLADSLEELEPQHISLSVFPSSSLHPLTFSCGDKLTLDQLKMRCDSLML

B1: VHH195B1 (VHH)
VHH: QVQLVESGGGLVQAGGSLRLSCAASGRTFGTYAMGWFRQAPGKERDFVARISNSGAFTHYADSVKGRFTISRDNAKNTVYLHMNSLENGDTAAYYCVATRGTNSAYYTRSTMYEYWGQGTQVTVSS
Turning to B1, in assay [1], the OD450 nm worked out at 2.93. Further, the figures for the FOB in assay [2] and in assay [3] were 58 fold and 78 fold, respectively.

B2: VHH97B1 (VHH)
VHH: QVQLVESGGGLAQAGGSLRLSCAASGRTFSNDDMAWFRQAPGKEREFVAHIDRNAASTNYADSVKGRFTISRDNAKNTVYLQMTRLKPEDTAVYYCAADPDHFGTTWYQQYTYWGPGTQVTVSS
For the molecule B2, in assay [1], the OD450 nm turned out to be 0.409. Moreover, the FOB was found to be 99 fold in assay [2] and 133 fold in assay [3].

B3: VHH32B1 (VHH)
VHH: EVQLVESGGGLVQPGGSLRLSCAASGFTFQNYAMSWLRKAPGEGLEWVSVINSGGGSTLYADSVKGRFTISRDNAKNTLYLQMHSLKSEDTAVYFCAKRRDDSTFGSLLYTHRGQGTQVTVSS
As for B3, the OD450 nm in assay [1] is 1.28. Also, the FOB turned out to be 129 fold in assay [2] and 78 fold in assay [3].

B4: VHH54B1 (VHH)
VHH: QVQLVESGGGLVQAGGSLRLSCAASGGPFSGYVMGWFRQVSGKEREFVAGITGISSTYFADSVKGRFTISRDNAKNMVYLQMNSLKPEDTAVYYCAAVNSFGVIPTSPNGMDYWGKGTLVTVSS
As to B4, the OD450 nm in assay [1] came out at 0.822. Besides, the FOB in assay [2] is 19 fold; in assay [3] it was 43 fold.

B5: VHH108B1 (VHH)
VHH: EVQLVESGGGLVQPGGSLTLSCTASGFRFSDRSMGWYRQAPGKQRELVAAITVGGSTNYADSVKGRFTISRDNAKNTVYLQMNSLKPEDTALYYCNRRYPPDDYWGQGTQVTVSS
B5 registered an OD450 nm in assay [1] of 2.73. The FOB was 184 fold in assay [2] and 260 fold in assay [3].

B6: VHH136B1 (VHH)
VHH: QVQLQESGGGLVQAGGSLRLSCAAPGRYAVGWFRQAPGKEYEFVAAITVSGGSKYYEDSVKGRFTISRDNAKNTVYLEMNSLKAEDTAVYYCAARTPKFGSGWYNRRGEYDYWGQGTQVTVSS
B6 showed an OD450 nm in assay [1] of 2.84. The FOB in assay [2] turned out to be 88 fold; in assay [3], 80 fold.

B7: VHH172B1 (VHH)
VHH: B6 VHH with Q5V, T120A
For B7, in assay [1], the OD450 nm came to 3.14. Further, the FOB in assay [2] was determined as 50 fold; in assay [3], 75.1 fold.

B8: VHH58B1 (VHH)
VHH: B6 VHH with Q5V, T65A, E78Q
For the molecule B8, the OD450 nm in assay [1] came to 3.03. Further, the FOB is 88 fold in assay [2] and 82 fold in assay [3].

B9: VHH50B1 (VHH)
VHH: QVQLVESGGGLVQAGGSLRLSCAASGRAFSRYSMGWFRQAPGKEREFVAANYWSNGWTDYADTVKGRFSISRDNAKNTVYLQMNSLKPEDTAVYYCAGRSSSIPSADVVGYDYWGQGTQVTVSS
In assay [1], B9 gave an OD450 nm of 0.151. Further, the FOB in assay [2] was determined as 106 fold; in assay [3] it was 132 fold.

B10: VHH104B1 (VHH)
VHH: EVQLVESGGGLVQPGGSLRLFCAASRSIFNINIMGWYRQAPGKQREWLASITSGGSTFYADSVKDRFTISRDSVKNTVYLQMNSLKPEDTAAYYCNRYRSVPLNTVYPWGQGTLVTVSS
B10: the OD450 nm in assay [1] amounted to 2.97. The FOB turned out to be 161 fold in assay [2] and 152 fold in assay [3].

B11: VHH174B1 (VHH)
VHH: QVQLVESGGGAVQAGGSLRLSCAASGLTSRHYVMAWFRQAPGIEREFVASIWWGGSTYYADSVKDRFTISRDNAENTVYLQMNSLKPEDTAVYRCAVGTKIGTMGPRYDYWGQGTQVTVSS
With B11, the OD450 nm in assay [1] worked out at 1.19. In addition, the FOB was determined as 68 fold in assay [2] and 80 fold in assay [3].

B12: DGL579 (bispecific antibody, V domains shown)
V domain 1: QVQLVESGGGLVQAGGSLRLSCAASRSISSFNEMAWYRQAPGEQRELVATIVSTVGFTNYADSVKGRFTISRDNAKNTVYLQMNSLKAEDTAVYYCNARRISTDYWGQGTQVTVEP
V domain 2: QVQLVESGGGLVQAGGSLRLSCAASGRTFSSYAMGWFRQAPGKEREFVSAISWSGLSTYYVESVQGRFTISRDNAKNTVYLQMNSLKPEDTAVYYCAASRIYTNYVARSYEYDDWGQGTQVTVEP
As to B12, in assay [4], the “Max Absorbance” value came out at 0.36.

B13: VHH233B1 (VHH)
VHH: B12 V domain 1 with E115S, P116S
Consider B13, for which the OD450 nm in assay [1] stood at 0.349. Moreover, the FOB in assay [2] is 81 fold; in assay [3], 146 fold.

B14: VHH238B1 (VHH)
VHH: QLQLVESGGGLVQPGGSLRLSCAASGFTFSSYGMSWVRQAPGKGLEWVSYISAGGGTTTYVDFVKGRFTISRDNAKNMLYLQMNSLKPEDTAVYYCVHAADGSRGQGTQVTVSS
In assay [1], B14 registered an OD450 nm of 3.33. The FOB in assay [2] came to 44 fold; in assay [3], 50 fold.

B15: VHH86B1 (VHH)
VHH: QVQLVESGGGLMQAGGSLRLSCALSRGIFSAYAMGWFRQVQGKEREFVSGISRSGSTTDYVDTAKGRFTISRDNARDTVYLQMNSLKPEDTAVYYCAAVTGTFPSSTYHNANAYHHWGQGTQVTVSS
In turn, B15 had an OD450 nm in assay [1] of 0.422. Further, the results for the FOB in assay [2] and in assay [3] were 64 fold and 104 fold, respectively.

B16: VHH67B1 (VHH)
VHH: QVQLVESGGGLVQAGGSLRLSCAASARIFNSYAVAWFRQTPGKEREFVASISWSGGSTNYADSVKGRFTISRDNAKNTVFLQMNSLKPADTAVYYCAADRNYYPSVLGKYTYWGQGTQVTVSS
In assay [1], B16 gave an OD450 nm of 2.93. For the same molecule, the FOB in assay [2] is 82 fold; in assay [3], 88 fold.

B17: VHH115B1 (VHH)
VHH: QVQLVESGGGLVQAGGSLRLSCLASGRTSNYFMGWFRQAPGKEREFVAAISRSGGGTWYADSVKGRFAISRDNAKNTVNLQMNSLKREDTAVYYCAADRRTGTSVYTVDEYDYWGQGTQVTVSS
In turn, B17 yielded an OD450 nm in assay [1] of 1.9. Further, the FOB in assay [2] is 62 fold; in assay [3] it was 101 fold.

B18: VHH154B1 (VHH)
VHH: QVQLQESGGGLVQVGDSLRLSCVASGRIFGVNTRAWYRQAPGNQRELVAQISSGGNINYADSVKGRFTISMDKFTDTVYLQMNSLKPEDTAIYRCAAHRQHPYADVWGQGTQVSVSS
In assay [1], B18 showed an OD450 nm of 2.85. The FOB turned out to be 21 fold in assay [2] and 24 fold in assay [3].

B19: DGL585 (bispecific antibody, V domains shown)
V domain 1: QVQLVESGGGLVQAGGSLRLSCAASGRTFSSYVMGWFRQAPGQEREFVAAIMRNGIMTYYADSVKGRFTISRDNAKNTVYLQMNTLKPDDTAVYYCAAASRVGVSISQSSSYTSWGQGTQVTVEP
V domain 2: QVQLVESGGGLVRPGGSLRLSCAASGFTFSSNGMHWFRQAPGKGLEWVSSIGSGGTSIYYADSVKGRFTISRDNAKNTLYLQMNSLKSDDTAVYYCSKEVTGATRGQGTQVTVEP
For orientation: EC50 means the concentration at which the effect is half-maximal. High values mean lower potency in that assay, low ones higher potency in that assay. Take B19: in assay [4], the EC50 was 3.2e-09 M (implied) and the “Max Absorbance” value was found to be 0.37.

B20: DGL503 (bispecific antibody, V domains shown)
V domain 1: EVQLVESGGGLVQAGGSLRLSCAASGLTFRNYAMAWFRQAPGKEREFVAGITWGGGLTHYVDSVKGRFTISRDNGKNTVYLQMNSLKSEDTAVYYCAGKTQGSTWYHLTPDGYDYWGQGTQVTVEP
V domain 2: QVQLVESGGGLVQAGGSLRLSCAASGRIFSAYRMGWFRQAPGKEREFVAGITWRGQTTYYAASVKGRFTISKDNAKKTVYLQMNSLKPEETAVYYCAVETNGLGRWDRPSEYDYWGQGTQVTVEP
Consider B20, for which the “Max Absorbance” value in assay [4] came out at 0.35.

B21: VHH72B1 (VHH)
VHH: B20 V domain 1 with E125S, P126S
Molecule B21 showed an OD450 nm in assay [1] of 1.98. Further, the FOB in assay [2] was 120 fold; in assay [3], 117 fold.

B22: VHH137B1 (VHH)
VHH: QVQLVESGGGLVQAGGSLRLSCAASGRTFRTYAMGWFRQAPGKDREVVGIAAWKVASTYYVDYGDSVRGRFTISRDDAKSTVYLQMNNLMPEDTAVYYCAAGAFRTDWRSYAYWGQGTQVTVSS
On to B22, for which the OD450 nm in assay [1] stood at 3.31. Further, the values for the FOB in assay [2] and in assay [3] were 152 fold and 116 fold, respectively.

B23: VHH187B1 (VHH)
VHH: EVQLVESGGGLVQPGGSLRLSCAASGFTLDYYAIGWFRQAPGKEREGVSCISSSDRSTWYADSVKGRFTISRDNAKNTVYLQMHSLKPEDTAVYYCATPCYSDYDPEGYEYDYWGQGTQVTVSS
In turn, B23 registered an OD450 nm in assay [1] of 0.125. In addition, the FOB came out at 42 fold in assay [2] and 86 fold in assay [3].

B24: VHH25B1 (VHH)
VHH: QVQLQESGGALVQPGGSLRLSCVVSGFTSDYFAIGWFRQAPGKEREGVSCIGSSDGSTIYSDSVKGRFTISRDNAKNTVYLQMNSLKPEDTGVYYCALDRGRRTIIGYACYATMKYWGKGTPVTVSS
As to B24, in assay [1], the OD450 nm was determined as 0.479. Besides, the FOB in assay [2] was 121 fold; in assay [3], 160 fold.
